Laboratory results from patent US20120121587A1 (Chugai, published 2012).
Substitutions are numbered along the chain they refer to. Read-outs that look alike come from different tables or passages of the source.

T1: Human recombinant AXL-FND1 (GST-FND1), from pET-41b(+) (human, UniProt P30530 225-331)
T1 construct: Expressed in E. coli, purified on Glutathione Sepharose; analyte in all Biacore measurements; GST put first by the usual layout of pET-41; not shown: GST-tag of vector pET-41b(+) (Novagen)
T1 sequence (looked up): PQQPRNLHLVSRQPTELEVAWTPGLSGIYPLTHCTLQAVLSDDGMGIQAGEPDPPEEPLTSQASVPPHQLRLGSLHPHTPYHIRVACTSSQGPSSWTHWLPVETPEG

B1: chH/L0 (antibody, V domains shown, not shown: a dimerising Fc or GST)
VH: QVQLKQSGPGLVAPSQSLSITCTVSGLSLTSFGVDWVRQSPGKGLEWLGVIWGGGSTNYNSALKSRLSISKDNSKSQVFLKMNSLQTDDTAMYYCAGEGSKYGAWFAYWGQGTLVTVSA
VL: DVVMTQSPLSLPVTLGQPASISCRSSQNIVHTNGNTYLEWYQQKPGKAPELLIYKVSNRFSGVPDRFSGSGSGTDFTLKISRVEAEDVGVYYCFQGSHIPFTFGQGTKLEIKR
notes: Chimeric H chain with humanized L chain
B2: H0/L0 (antibody, human IgG1, kappa, V domains shown)
VH: QVTLKESGPVLVKPTETLTLTCTVSGFSLSSFGVDWVRQAPGKGLEWMGVIWGGGSTNYNSALKSRLTISKDTSKSQVVLTMTNMDPVDTATYYCAGEGSKYGAWFAYWGQGTLVTVSS
VL: B1 VL
notes: Humanized Ax225; IgG1 constant region without G446 and K447 (EU), natural human kappa
B3: H6/L0 (antibody, V domains shown, not shown: a dimerising Fc or GST)
VH: B1 VH with G97R
VL: B1 VL
notes: H6 is chH with arginine for glycine at Kabat position 94
B4: H9/L0 (antibody, human IgG1, kappa)
heavy: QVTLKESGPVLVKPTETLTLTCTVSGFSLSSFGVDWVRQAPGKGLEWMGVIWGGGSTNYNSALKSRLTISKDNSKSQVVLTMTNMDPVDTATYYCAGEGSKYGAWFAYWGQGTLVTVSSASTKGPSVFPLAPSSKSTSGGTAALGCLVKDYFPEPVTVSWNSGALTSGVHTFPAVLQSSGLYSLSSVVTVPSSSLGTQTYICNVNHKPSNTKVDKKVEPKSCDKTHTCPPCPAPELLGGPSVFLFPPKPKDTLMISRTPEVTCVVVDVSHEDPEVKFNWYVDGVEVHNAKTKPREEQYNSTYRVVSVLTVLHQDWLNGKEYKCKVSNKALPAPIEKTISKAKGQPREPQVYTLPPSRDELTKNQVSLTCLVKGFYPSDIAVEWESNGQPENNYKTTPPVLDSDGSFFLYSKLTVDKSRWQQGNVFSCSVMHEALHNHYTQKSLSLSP
light: DVVMTQSPLSLPVTLGQPASISCRSSQNIVHTNGNTYLEWYQQKPGKAPELLIYKVSNRFSGVPDRFSGSGSGTDFTLKISRVEAEDVGVYYCFQGSHIPFTFGQGTKLEIKRTVAAPSVFIFPPSDEQLKSGTASVVCLLNNFYPREAKVQWKVDNALQSGNSQESVTEQDSKDSTYSLSSTLTLSKADYEKHKVYACEVTHQGLSSPVTKSFNRGEC
notes: also called humanized Ax225 antibody (H9/L0)
B5: H36/L36 (antibody, human IgG1, kappa, V domains shown)
VH: B2 VH with P41R, K43Q, G44R, T73N
VL: B1 VL with G34A

Key:
Assay in all cases: SPR (Biacore T100): antibody captured on Protein A, GST-FND1 as analyte
[1] = biological target: T1, Human recombinant AXL-FND1 (GST-FND1), …
Experimental: (§1) Kinetic analyses of antigen-antibody reactions of humanized AXL antibodies were carried out using Biacore T100 (BIACORE). rec-Protein A (Zymed) (hereinafter, Protein A) was immobilized onto a sensor chip, various antibodies were bound to it, then an antigen as the analyte was flushed to measure the antibody-antigen interaction. Human recombinant AXL-FND1 (prepared in 2-2; hereinafter referred to as GST-FND1) prepared at various concentrations was used as the antigen. From the sensorgrams obtained through the measurements, kinetic parameters, namely binding rate constant kₐ (1/Ms) and dissociation rate constant kd (1/s), were calculated, and Kd (M) was calculated based on these values. Biacore T100 Evaluation Software (BIACORE) was used to calculate each of the parameters.
(§2) The sensor chips were produced by immobilizing approximately 3000 RU of Protein A onto CM5 (BIACORE) by amine coupling. Using the produced sensor chip, kinetic analyses were carried out on the interaction between the Protein A-bound antibodies and GST-FND1. HBS-EP+ was used as the running buffer, and the flow rate was set to 30 μL/min. Each antibody was prepared at 1 μg/mL using the running buffer, and was subjected to binding with Protein A for two minutes. GST-FND1 as the analyte was prepared at 0.5 and 2.0 μg/mL using HBS-EP+. […]

[2] = biological target: T1, Human recombinant AXL-FND1 (GST-FND1), …; remark: listed apart in the source
Experimental: as §1, §2

[3] = biological target: T1, Human recombinant AXL-FND1 (GST-FND1), …; remark: listed apart in the source
Experimental: as §1
The sensor chips were produced by immobilizing approximately 3000 RU of Protein A onto CM5 (BIACORE) by amine coupling. Using the produced sensor chip, kinetic analyses were carried out on the interaction between the Protein A-bound antibodies and GST-FND1. HBS-EP+ was used as the running buffer, and the flow rate was set to 30 μL/min. Each antibody was prepared at 1 μg/mL using the running buffer, and was subjected to binding with Protein A for two minutes. GST-FND1 as the analyte was prepared at 0.5 and 2.0 μg/mL using HBS-EP+. Measurements were carried out by first binding the various humanized AXL antibodies, chimeric AXL antibodies, or mouse AXL antibodies of interest to Protein A, then applying an analyte solution to them for a two-minute interaction, and then switching to HBS-EP+ (BIACORE) for a two-minute measurement of the dissociation phase. After completion of measurement of the dissociation phase, 30 μL of 10 mM glycine-HCl (pH 2.0) was used for washing to regenerate the sensor chip. Such binding, dissociation, and regeneration were defined as one cycle of analysis. All experiments were performed at 25° C.
Affinity measurements on the produced variants were carried out by the method of Example 2.

[4] = biological target: T1, Human recombinant AXL-FND1 (GST-FND1), …; remark: listed apart in the source
Summary of the method: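 Antibodies (1 μg/mL) were captured for 2 min on a Protein A CM5 chip. GST-FND1 (0.5 and 2.0 μg/mL) in HBS-EP+ was flowed at 30 μL/min with 2 min association and 2 min dissociation at 25° C. ka and kd were fitted from sensorgrams and Kd was calculated from them.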

Row | Binder | Kd [1] [nM] | Kd [2] [nM] | Kd [3] [nM] | Kd [4] [nM]
1 | B1 | 1.59 | – | – | –
2 | B2 | – | 4.44 | – | –
3 | B3 | 12.3 | – | – | –
4 | B4 | – | 3.58 | 3.58 | 3.58
5 | B5 | – | – | 2.59 | –
